{
  "source": "paper PMC8705320",
  "key": {"papain": {"biological_target": "papain (UniProt P00784)", "sequence (P00784 134-345)": "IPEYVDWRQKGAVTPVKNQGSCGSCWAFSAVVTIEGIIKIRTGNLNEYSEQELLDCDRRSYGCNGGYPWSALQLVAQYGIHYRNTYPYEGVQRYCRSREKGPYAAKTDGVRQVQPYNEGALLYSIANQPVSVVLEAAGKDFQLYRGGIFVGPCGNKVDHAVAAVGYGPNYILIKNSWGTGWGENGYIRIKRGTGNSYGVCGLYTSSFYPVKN"}, "[1]": {"biological_target": "human cathepsin L (human) (UniProt P07711)", "test": "enzyme inhibition kinetics (Dixon plot); cathepsin L 0.4 nM; Cystatin-Hv 8, 16 and 24 nM; Z-FR-AMC substrate at 1 Km and 2 Km; 50 mM sodium phosphate, 200 mM NaCl, 5 mM EDTA, pH 5.5, 6 mM DTT preactivation; 37 °C; fluorescence read each minute for 15 min"}},
  "data": [
    {"substance": "Cystatin-Hv (recombinant cystatin of the leech Haementeria vizottoi) (natural protein)", "values": [
      {"measurement": "IC50 of inhibition of papain activity (papain 21.4 nmol/L or 50 ng, 5 µM Z-FR-MCA substrate; 1, 5, 10 and 15 µg of pool 2 from ion-exchange chromatography)", "setting": "papain", "value": 120, "unit": "nM"},
      {"measurement": "Ki", "setting": "[1]", "value": 7.9, "unit": "nM"}
    ]}
  ]
}
